Our source for the Kd, koff and kon values is article PMC4121139.

For the assay, the target named is human serum albumin (human) (UniProt P02768). The experiment in a line: SPR. (In SPR one partner is held on a chip, and binding of the other changes the refractive index at the surface.)

What is called Kd is a measure of binding affinity in units of concentration. A high value points to a looser complex. As usually defined, the koff is the rate constant with which the complex falls apart. A higher koff goes with a short-lived complex. Usually kon stands for the rate constant with which the complex forms. Read a high kon as fast association. Substance “albumin-binding domain (ABD) derived from streptococcal protein G (domain or fragment)” yielded a Kd of 8.1 nM, a koff of 0.00044 s⁻¹ and a kon of 54000 M⁻¹ s⁻¹.
